Assay results from patent US20110263454A1, “Methods of Identifying Functional Characteristics of Promoters, Transcription Modifying Proteins and Transcription Modulating Agents” (Salk Institute for Biological Studies, priority 2008, published 2011).

Key:
mPgc1b promoter = experiment: NHR-promoter luciferase screen, mPgc1b promoter; type: cell-based, mouse; conditions: for Luc. act., normalized to lacZ / Normalized Luc. act., normalized to control: PGC1b promoter reporter, co-transfected HR, without or with its ligand; for Normalized Luc. act., normalized to control: relative to control; for luciferase activity normalized to lacZ activity and to a control, mPgc1b: mPgc1b promoter-luciferase, CV-1 cells, NHR +/- ligand, control = 1.00
Method in brief: (§1)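 Luciferase reporter read-out after co-expression in CV-1 cells of V5H6-tagged receptor (alone or with RXR), the promoter construct and LacZ. Values are luciferase/LacZ relative to a control lacking NHR or ligand; orphan receptors tested ligand-free.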

mGhrelin promoter = experiment: NHR-promoter luciferase screen, mGhrelin promoter; type: cell-based, mouse; conditions: for Luc. act., normalized to lacZ / Normalized Luc. act., normalized to control: Table 8, mGhrelin; for Results of assays of transcription factor (+/- ligand) with mGhrelin: Table 6d, luciferase activity relative to control (control = 1.00)
Method in brief: (§2)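 CV-1 cells were co-transfected with 50 ng NHR (homodimer or NHR/RXR heterodimer), 100 ng promoter-luciferase construct and 50 ng LacZ. Luciferase was normalized to LacZ and to a no-NHR/no-ligand control.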

mAgrp promoter = experiment: NHR-promoter luciferase screen, mAgrp promoter; type: cell-based, mouse; conditions: for Results of assays of transcription factor (+/- ligand) with mAgrp: Table 6d, luciferase activity relative to control (control = 1.00); for Luc. act., normalized to lacZ / Normalized Luc. act., normalized to control: mAgrp promoter, HR component with or without ligand; for Normalized Luc. act., normalized to control: relative to control
Method in brief: as §2

hCYP3A4 promoter = experiment: NHR-promoter luciferase screen, hCYP3A4 promoter; type: cell-based, human; conditions: for Luc. act., normalized to lacZ / Normalized Luc. act., normalized to control: CYP3A4 promoter, HR/ligand component; for hCYP3A4 promoter reporter activity: transcription factor +/- ligand, control = 1.00
Method in brief: as §1

mABCA1 promoter = experiment: NHR-promoter luciferase screen, mABCA1 promoter; type: cell-based, mouse; conditions: for Luc. act., normalized to lacZ / Normalized Luc. act., normalized to control: ABCA1 promoter, hormone receptor with or without its ligand; for Normalized Luc. act., normalized to control: relative to control; for mABCA1 promoter reporter activity: transcription factor +/- ligand, control = 1.00
Method in brief: as §2

B1: hMR: Mineralocorticoid Receptor (NR3C2, MR), cDNA driver (protein, UniProt P08235 1-984, looked up)
Mineralocorticoid receptor: METKGYHSLPEGLDMERRWGQVSQAVERSSLGPTERTDENNYMEIVNVSCVSGAIPNNSTQGSSKEKQELLPCLQQDNNRPGILTSDIKTELESKELSATVAESMGLYMDSVRDADYSYEQQNQQGSMSPAKIYQNVEQLVKFYKGNGHRPSTLSCVNTPLRSFMSDSGSSVNGGVMRAVVKSPIMCHEKSPSVCSPLNMTSSVCSPAGINSVSSTTASFGSFPVHSPITQGTPLTCSPNVENRGSRSHSPAHASNVGSPLSSPLSSMKSSISSPPSHCSVKSPVSSPNNVTLRSSVSSPANINNSRCSVSSPSNTNNRSTLSSPAASTVGSICSPVNNAFSYTASGTSAGSSTLRDVVPSPDTQEKGAQEVPFPKTEEVESAISNGVTGQLNIVQYIKPEPDGAFSSSCLGGNSKINSDSSFSVPIKQESTKHSCSGTSFKGNPTVNPFPFMDGSYFSFMDDKDYYSLSGILGPPVPGFDGNCEGSGFPVGIKQEPDDGSYYPEASIPSSAIVGVNSGGQSFHYRIGAQGTISLSRSARDQSFQHLSSFPPVNTLVESWKSHGDLSSRRSDGYPVLEYIPENVSSSTLRSVSTGSSRPSKICLVCGDEASGCHYGVVTCGSCKVFFKRAVEGQHNYLCAGRNDCIIDKIRRKNCPACRLQKCLQAGMNLGARKSKKLGKLKGIHEEQPQQQQPPPPPPPPQSPEEGTTYIAPAKEPSVNTALVPQLSTISRALTPSPVMVLENIEPEIVYAGYDSSKPDTAENLLSTLNRLAGKQMIQVVKWAKVLPGFKNLPLEDQITLIQYSWMCLSSFALSWRSYKHTNSQFLYFAPDLVFNEEKMHQSAMYELCQGMHQISLQFVRLQLTFEEYTIMKVLLLLSTIPKDGLKSQAAFEEMRTNYIKELRKMVTKCPNNSGQSWQRFYQLTKLLDSMHDLVSDLLEFCFYTFRESHALKVEFPAMLVEIISDQLPKVESGNAKPLYFHRK
mPgc1b promoter
  Luc. act., normalized to lacZ: 5.7
  Normalized Luc. act., normalized to control: 0.5
  luciferase activity normalized to lacZ activity and to a control, mPgc1b: 0.48
mGhrelin promoter
  Luc. act., normalized to lacZ: 49.7
  Normalized Luc. act., normalized to control: 1.0
  Results of assays of transcription factor (+/- ligand) with mGhrelin: 0.95
mAgrp promoter
  Results of assays of transcription factor (+/- ligand) with mAgrp: 0.79
  Luc. act., normalized to lacZ: 31.2
  Normalized Luc. act., normalized to control: 0.8
hCYP3A4 promoter
  Luc. act., normalized to lacZ: 2.6
  Normalized Luc. act., normalized to control: 0.6
  hCYP3A4 promoter reporter activity: 0.58
mABCA1 promoter
  Luc. act., normalized to lacZ: 6.8
  Normalized Luc. act., normalized to control: 1.2
  mABCA1 promoter reporter activity: 1.21

B2: CTF2: COUP-TF2 (NR2F2), cDNA driver (protein, UniProt P24468 1-414, looked up)
COUP transcription factor 2: MAMVVSTWRDPQDEVPGSQGSQASQAPPVPGPPPGAPHTPQTPGQGGPASTPAQTAAGGQGGPGGPGSDKQQQQQHIECVVCGDKSSGKHYGQFTCEGCKSFFKRSVRRNLSYTCRANRNCPIDQHHRNQCQYCRLKKCLKVGMRREAVQRGRMPPTQPTHGQFALTNGDPLNCHSYLSGYISLLLRAEPYPTSRFGSQCMQPNNIMGIENICELAARMLFSAVEWARNIPFFPDLQITDQVALLRLTWSELFVLNAAQCSMPLHVAPLLAAAGLHASPMSADRVVAFMDHIRIFQEQVEKLKALHVDSAEYSCLKAIVLFTSDACGLSDVAHVESLQEKSQCALEEYVRSQYPNQPTRFGKLLLRLPSLRTVSSSVIEQLFFVRLVGKTPIETLIRDMLLSGSSFNWPYMAIQ
mPgc1b promoter
  Luc. act., normalized to lacZ: 12.2
  Normalized Luc. act., normalized to control: 1.0
  luciferase activity normalized to lacZ activity and to a control, mPgc1b: 1.03
mGhrelin promoter
  Luc. act., normalized to lacZ: 173.3
  Normalized Luc. act., normalized to control: 3.3
  Results of assays of transcription factor (+/- ligand) with mGhrelin: 3.32
mAgrp promoter
  Results of assays of transcription factor (+/- ligand) with mAgrp: 1.08
  Luc. act., normalized to lacZ: 42.7
  Normalized Luc. act., normalized to control: 1.1
hCYP3A4 promoter
  Luc. act., normalized to lacZ: 2.7
  Normalized Luc. act., normalized to control: 0.6
  hCYP3A4 promoter reporter activity: 0.61
mABCA1 promoter
  Luc. act., normalized to lacZ: 4.7
  Normalized Luc. act., normalized to control: 0.8
  mABCA1 promoter reporter activity: 0.84

B3: CTF3: COUP-TF3 (NR2F6), cDNA driver (protein, UniProt P10588 1-404, looked up)
Nuclear receptor subfamily 2 …: MAMVTGGWGGPGGDTNGVDKAGGYPRAAEDDSASPPGAASDAEPGDEERPGLQVDCVVCGDKSSGKHYGVFTCEGCKSFFKRSIRRNLSYTCRSNRDCQIDQHHRNQCQYCRLKKCFRVGMRKEAVQRGRIPHSLPGAVAASSGSPPGSALAAVASGGDLFPGQPVSELIAQLLRAEPYPAAAGRFGAGGGAAGAVLGIDNVCELAARLLFSTVEWARHAPFFPELPVADQVALLRLSWSELFVLNAAQAALPLHTAPLLAAAGLHAAPMAAERAVAFMDQVRAFQEQVDKLGRLQVDSAEYGCLKAIALFTPDACGLSDPAHVESLQEKAQVALTEYVRAQYPSQPQRFGRLLLRLPALRAVPASLISQLFFMRLVGKTPIETLIRDMLLSGSTFNWPYGSGQ
mPgc1b promoter
  Luc. act., normalized to lacZ: 4.9
  Normalized Luc. act., normalized to control: 0.4
  luciferase activity normalized to lacZ activity and to a control, mPgc1b: 0.42
mGhrelin promoter
  Luc. act., normalized to lacZ: 68.4
  Normalized Luc. act., normalized to control: 1.3
  Results of assays of transcription factor (+/- ligand) with mGhrelin: 1.31
mAgrp promoter
  Results of assays of transcription factor (+/- ligand) with mAgrp: 0.86
  Luc. act., normalized to lacZ: 34.2
  Normalized Luc. act., normalized to control: 0.9
hCYP3A4 promoter
  Luc. act., normalized to lacZ: 6.1
  Normalized Luc. act., normalized to control: 1.4
  hCYP3A4 promoter reporter activity: 1.37
mABCA1 promoter
  Luc. act., normalized to lacZ: 5.6
  Normalized Luc. act., normalized to control: 1.0
  mABCA1 promoter reporter activity: 1.01

B4: PR: Progesterone Receptor (NR3C3), cDNA driver (protein, UniProt P06401 1-933, looked up)
Progesterone receptor: MTELKAKGPRAPHVAGGPPSPEVGSPLLCRPAAGPFPGSQTSDTLPEVSAIPISLDGLLFPRPCQGQDPSDEKTQDQQSLSDVEGAYSRAEATRGAGGSSSSPPEKDSGLLDSVLDTLLAPSGPGQSQPSPPACEVTSSWCLFGPELPEDPPAAPATQRVLSPLMSRSGCKVGDSSGTAAAHKVLPRGLSPARQLLLPASESPHWSGAPVKPSPQAAAVEVEEEDGSESEESAGPLLKGKPRALGGAAAGGGAAAVPPGAAAGGVALVPKEDSRFSAPRVALVEQDAPMAPGRSPLATTVMDFIHVPILPLNHALLAARTRQLLEDESYDGGAGAASAFAPPRSSPCASSTPVAVGDFPDCAYPPDAEPKDDAYPLYSDFQPPALKIKEEEEGAEASARSPRSYLVAGANPAAFPDFPLGPPPPLPPRATPSRPGEAAVTAAPASASVSSASSSGSTLECILYKAEGAPPQQGPFAPPPCKAPGASGCLLPRDGLPSTSASAAAAGAAPALYPALGLNGLPQLGYQAAVLKEGLPQVYPPYLNYLRPDSEASQSPQYSFESLPQKICLICGDEASGCHYGVLTCGSCKVFFKRAMEGQHNYLCAGRNDCIVDKIRRKNCPACRLRKCCQAGMVLGGRKFKKFNKVRVVRALDAVALPQPVGVPNESQALSQRFTFSPGQDIQLIPPLINLLMSIEPDVIYAGHDNTKPDTSSSLLTSLNQLGERQLLSVVKWSKSLPGFRNLHIDDQITLIQYSWMSLMVFGLGWRSYKHVSGQMLYFAPDLILNEQRMKESSFYSLCLTMWQIPQEFVKLQVSQEEFLCMKVLLLLNTIPLEGLRSQTQFEEMRSSYIRELIKAIGLRQKGVVSSSQRFYQLTKLLDNLHDLVKQLHLYCLNTFIQSRALSVEFPEMMSEVIAAQLPKILAGMVKPLLFHKK
mPgc1b promoter
  Luc. act., normalized to lacZ: 8.9
  Normalized Luc. act., normalized to control: 0.7
  luciferase activity normalized to lacZ activity and to a control, mPgc1b: 0.75
mGhrelin promoter
  Luc. act., normalized to lacZ: 53.6
  Normalized Luc. act., normalized to control: 1.0
  Results of assays of transcription factor (+/- ligand) with mGhrelin: 1.03
mAgrp promoter
  Results of assays of transcription factor (+/- ligand) with mAgrp: 1.13
  Luc. act., normalized to lacZ: 44.7
  Normalized Luc. act., normalized to control: 1.1
hCYP3A4 promoter
  Luc. act., normalized to lacZ: 6.5
  Normalized Luc. act., normalized to control: 1.5
  hCYP3A4 promoter reporter activity: 1.47
mABCA1 promoter
  Luc. act., normalized to lacZ: 8.9
  Normalized Luc. act., normalized to control: 1.6
  mABCA1 promoter reporter activity: 1.58

B5: CTF1: COUP-TF1 (NR2F1), cDNA driver (protein, UniProt P10589 1-423, looked up)
COUP transcription factor 1: MAMVVSSWRDPQDDVAGGNPGGPNPAAQAARGGGGGAGEQQQQAGSGAPHTPQTPGQPGAPATPGTAGDKGQGPPGSGQSQQHIECVVCGDKSSGKHYGQFTCEGCKSFFKRSVRRNLTYTCRANRNCPIDQHHRNQCQYCRLKKCLKVGMRREAVQRGRMPPTQPNPGQYALTNGDPLNGHCYLSGYISLLLRAEPYPTSRYGSQCMQPNNIMGIENICELAARLLFSAVEWARNIPFFPDLQITDQVSLLRLTWSELFVLNAAQCSMPLHVAPLLAAAGLHASPMSADRVVAFMDHIRIFQEQVEKLKALHVDSAEYSCLKAIVLFTSDACGLSDAAHIESLQEKSQCALEEYVRSQYPNQPSRFGKLLLRLPSLRTVSSSVIEQLFFVRLVGKTPIETLIRDMLLSGSSFNWPYMSIQCS
mPgc1b promoter
  Luc. act., normalized to lacZ: 6.7
  Normalized Luc. act., normalized to control: 0.6
  luciferase activity normalized to lacZ activity and to a control, mPgc1b: 0.57
mGhrelin promoter
  Luc. act., normalized to lacZ: 113.8
  Normalized Luc. act., normalized to control: 2.2
  Results of assays of transcription factor (+/- ligand) with mGhrelin: 2.18
mAgrp promoter
  Results of assays of transcription factor (+/- ligand) with mAgrp: 0.71
  Luc. act., normalized to lacZ: 28.2
  Normalized Luc. act., normalized to control: 0.7
hCYP3A4 promoter
  Luc. act., normalized to lacZ: 2.6
  Normalized Luc. act., normalized to control: 0.6
  hCYP3A4 promoter reporter activity: 0.59
mABCA1 promoter
  Luc. act., normalized to lacZ: 5.5
  Normalized Luc. act., normalized to control: 1.0
  mABCA1 promoter reporter activity: 0.99
